In article PMC3127822 one finds percent of heavy chain in the NudE pellet and percent of heavy chain in the pellet data, which are given here for two substances.

The target in experiment [1] is recombinant glutathione S-transferase (GST) NudE (UniProt Q9CZA6). Nature of the experiment: pull-down; 1 ug/ul GST-NudE or GST-CC1 with glutathione agarose 4B and pre-cleared whole brain lysate of P0 wild-type or Loa/Loa mice; phosphate-glutamate buffer (10 mM sodium phosphate, 100 mM sodium glutamate, pH 7.0, 1 mM MgSO4, 1 mM EDTA, 1 mM DTT, 0.2% NP-40), 4°C, 2 hours; western blot of supernatants and pellets. (In general: A western blot detects proteins with antibodies after separation by electrophoresis.)

The target in experiment [2] is GST-tagged CC1 fragment from the dynactin subunit p150Glued. The experiment is described as above.

Sequence of UniProt Q9CZA6 (Q9CZA6 whole entry): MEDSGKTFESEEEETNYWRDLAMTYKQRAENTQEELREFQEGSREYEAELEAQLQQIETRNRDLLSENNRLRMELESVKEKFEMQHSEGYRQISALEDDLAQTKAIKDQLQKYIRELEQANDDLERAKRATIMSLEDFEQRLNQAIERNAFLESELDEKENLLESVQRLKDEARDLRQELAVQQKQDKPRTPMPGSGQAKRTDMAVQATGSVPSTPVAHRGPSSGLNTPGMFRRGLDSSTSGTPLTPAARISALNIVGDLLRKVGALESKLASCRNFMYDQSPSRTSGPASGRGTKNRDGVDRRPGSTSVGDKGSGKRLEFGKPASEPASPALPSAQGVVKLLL

For the substance “Loa/Loa mutant cytoplasmic dynein (from UniProt Q9JHU4 1-4644; O88485 1-628) (complex)”, the percent of heavy chain in the NudE pellet in experiment [1] worked out at 57.7%. The percent of heavy chain in the pellet in experiment [2] amounted to 40.7%.
The like results for “wild-type cytoplasmic dynein (from UniProt Q9JHU4 1-4644; O88485 1-628) (complex)” were, in that order, 66.2% and 45.3%.
